Positions count from the first letter of the chain named. Where two headings read alike, the source gives them in different places. Blank lines part the entries; values can stand above or below the binder they belong to.
What was measured:
[1] = molecular target: T1, human FcγRIIA(H131) expressed on CHO cells (human, UniProt P12318 34-317); experiment: FACS, CHO cells expressing FcγRIIA(H131)
T1 construct: whole, on cells
T1 sequence (looked up): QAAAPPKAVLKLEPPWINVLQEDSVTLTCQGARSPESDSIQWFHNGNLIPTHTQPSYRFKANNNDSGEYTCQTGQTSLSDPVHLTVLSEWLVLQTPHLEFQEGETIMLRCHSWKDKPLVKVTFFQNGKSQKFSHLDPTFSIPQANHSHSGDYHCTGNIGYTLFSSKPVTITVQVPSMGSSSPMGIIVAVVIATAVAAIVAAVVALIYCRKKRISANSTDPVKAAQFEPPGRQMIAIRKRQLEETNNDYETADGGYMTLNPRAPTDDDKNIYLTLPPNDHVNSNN
Description: (§1) FIGS. 1A-1W are charts showing binding activity of various IgG variants as indicated to different types of Fcγ receptors expressed on CHO-K1 cells at the various concentrations as indicated. The concentrations of each IgG variant, from left to right, are 0 μg/ml, 0.3 μg/ml, 1 μg/ml, 3 μg/ml, and 10 μg/ml in FIGS. 1A-1C, 1E-J, 1L-1M, 1P-1R, and 1T-1V. For FIGS. 1D, 1K, 10, 1S, and 1w the bars, from left to right, correspond to the following concentrations of IgG variant: 0.3 μg/ml, 1 μg/ml, 3 μg/ml, and 10 μg/ml.
(§2) For FACS analysis of the IgG mutants' binding to different FcγRs, FcγR overexpressing CHO cells were harvested using trypsin-EDTA and were suspended in cold staining buffer (3% BSA in PBS). Test IgG mutants, which were diluted in staining buffer, were added into the cells. The mixture was incubated 4° C. for 2 hours, and then washed twice with cold staining buffer and re-suspended in PE-labeled anti-human IgG followed by incubation at 4° C. for 2 hours. The mixture was washed twice with staining buffer and re-suspended in 2% PFA in PBS for FACS.

[2] = molecular target: T2, human FcRIIIA-V158 protein (MednaBio, E1035) (human, UniProt P08637 17-208); experiment: BLI
T2 construct: Bought; also called FcγRIIIA(V); FcgRIIIA(V)
How it was run: (§3)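 Binding was measured by biolayer interferometry on an Octet Red96 System. Commercial human Fc receptor proteins were loaded at 20 μg/mL onto anti-penta-HIS biosensors, which were then dipped into an 8-point 1:3 dilution series of test IgG starting at 300 nM in PBS with 0.1% BSA and 0.02% Tween-20, at pH 7.2 for Fcγ receptors and pH 6 for FcRn. Kd, kon and koff were obtained by global fitting, with data fitted to a 1:1 binding model.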

[3] = molecular target: T3, human FcRIIB/C protein (MednaBio, E1034) (human, UniProt P31994 43-217, limits assumed); experiment: BLI
T3 construct: Bought as FcRIIB/C; also called FcγRIIB; CD32B
T3 sequence (looked up): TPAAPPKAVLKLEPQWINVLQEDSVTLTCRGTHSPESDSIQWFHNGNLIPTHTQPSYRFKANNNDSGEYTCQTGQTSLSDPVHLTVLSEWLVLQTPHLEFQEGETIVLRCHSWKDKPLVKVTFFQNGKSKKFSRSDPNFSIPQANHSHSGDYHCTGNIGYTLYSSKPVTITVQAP
How it was run: as §3

[4] = molecular target: T4, human FcRIIA protein (MednaBio, E1033) (human, UniProt P12318 34-218, limits assumed); experiment: BLI
T4 construct: Bought; also called FcγRIIA
T4 sequence (looked up): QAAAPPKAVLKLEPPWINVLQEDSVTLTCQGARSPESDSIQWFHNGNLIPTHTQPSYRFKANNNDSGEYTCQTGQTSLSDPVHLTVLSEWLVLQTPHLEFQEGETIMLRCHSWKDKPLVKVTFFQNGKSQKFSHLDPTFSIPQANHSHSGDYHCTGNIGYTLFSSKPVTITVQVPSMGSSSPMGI
How it was run: as §3

[5] = molecular target: T5, human FcRIIIB protein (MednaBio, E1037) (human, UniProt O75015 17-200); experiment: BLI
T5 construct: Bought; also called FcγRIIIB; FcgRIIIB
How it was run: as §3

[6] = molecular target: T6, human FcRn protein (MednaBio, E1032) (human, UniProt P55899 24-297; P61769 21-119); experiment: BLI
T6 construct: Bought; assays at pH 6
How it was run: as §3

[7] = molecular target: T7, human FcRIIIA-F158 protein (MednaBio, E1036) (human, UniProt P08637 17-208); experiment: BLI
T7 construct: Bought; also called FcγRIIIA(F)
How it was run: as §3

[8] = molecular target: T8, human FcRI protein (MednaBio, E1031) (human, UniProt P12314 16-288, limits assumed); experiment: BLI
T8 construct: Bought; loaded on anti-penta-HIS biosensors; also called FcγRI
How it was run: as §3

[9] = molecular target: T9, human FcγRIIA(R131) expressed on CHO cells (human, UniProt P12318 34-317); experiment: FACS, CHO cells expressing FcγRIIA(R131)
T9 construct: whole, on cells
T9 sequence (looked up): T1 sequence (looked up) with H134R
Description: as §2

[10] = molecular target: T10, human FcγRIIC expressed on CHO cells (human, UniProt P31995 43-323); experiment: FACS, CHO cells expressing FcγRIIC
T10 construct: whole, on cells
T10 sequence (looked up): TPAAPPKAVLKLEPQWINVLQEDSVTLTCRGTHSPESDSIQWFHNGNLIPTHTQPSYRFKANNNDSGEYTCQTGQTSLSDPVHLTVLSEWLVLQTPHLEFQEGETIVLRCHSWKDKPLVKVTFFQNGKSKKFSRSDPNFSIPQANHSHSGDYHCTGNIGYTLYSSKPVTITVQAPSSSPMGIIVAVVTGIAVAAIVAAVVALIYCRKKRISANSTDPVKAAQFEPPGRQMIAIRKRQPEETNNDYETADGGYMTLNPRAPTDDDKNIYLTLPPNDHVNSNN
Description: as §2

[11] = molecular target: T2, human FcRIIIA-V158 protein (MednaBio, …); experiment: BLI; remark: listed apart in the source
How it was run: as §3

[12] = molecular target: T3, human FcRIIB/C protein (MednaBio, E1034); experiment: BLI; remark: listed apart in the source
How it was run: as §3

[13] = molecular target: T4, human FcRIIA protein (MednaBio, E1033); experiment: BLI; remark: listed apart in the source
How it was run: as §3

[14] = molecular target: T5, human FcRIIIB protein (MednaBio, E1037); experiment: BLI; remark: listed apart in the source
How it was run: as §3

[15] = molecular target: T6, human FcRn protein (MednaBio, E1032); experiment: BLI; remark: listed apart in the source
How it was run: as §3

[16] = molecular target: T7, human FcRIIIA-F158 protein (MednaBio, …); experiment: BLI; remark: listed apart in the source
How it was run: as §3

[17] = molecular target: T8, human FcRI protein (MednaBio, E1031); experiment: BLI; remark: listed apart in the source
How it was run: as §3

[18] = molecular target: T9, human FcγRIIA(R131) expressed on CHO …; experiment: FACS, CHO cells expressing FcγRIIA(R131); remark: listed apart in the source
Description: as §1, §2

T2 sequence (P08637 17-208 F176V): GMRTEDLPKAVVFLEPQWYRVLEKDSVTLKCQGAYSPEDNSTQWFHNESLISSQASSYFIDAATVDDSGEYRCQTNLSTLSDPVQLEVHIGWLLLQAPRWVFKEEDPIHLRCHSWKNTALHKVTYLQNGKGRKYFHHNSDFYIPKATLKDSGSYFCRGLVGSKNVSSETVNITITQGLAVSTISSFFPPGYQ
T5 sequence (O75015 17-200 limits assumed): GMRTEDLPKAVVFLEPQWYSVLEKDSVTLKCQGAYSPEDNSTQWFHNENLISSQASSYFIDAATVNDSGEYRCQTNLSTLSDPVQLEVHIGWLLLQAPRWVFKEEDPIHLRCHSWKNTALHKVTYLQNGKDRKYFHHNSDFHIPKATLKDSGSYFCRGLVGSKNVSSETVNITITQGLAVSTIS
T8 sequence (P12314 16-288 limits assumed): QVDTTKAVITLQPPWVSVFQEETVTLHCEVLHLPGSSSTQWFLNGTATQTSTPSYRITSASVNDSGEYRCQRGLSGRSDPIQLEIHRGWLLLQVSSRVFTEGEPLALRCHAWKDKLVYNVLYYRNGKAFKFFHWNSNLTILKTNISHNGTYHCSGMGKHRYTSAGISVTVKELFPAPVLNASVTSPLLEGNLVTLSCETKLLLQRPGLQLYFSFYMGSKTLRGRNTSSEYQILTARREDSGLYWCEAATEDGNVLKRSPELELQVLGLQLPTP
T7 sequence (P08637 17-208 limits assumed): as the sequence (P08637 17-208 F176V) above, with V160F counted along it

B1: anti-CD137 IgG1 with Fc variant G1m25 (antibody)
heavy: EVQLVQSGAEVKKPGESLRISCKGSGYSFSTYWISWVRQMPGKGLEWMGKIYPGDSYTNYSPSFQGQVTISADKSISTAYLQWSSLKASDTAMYYCARGYGIFDYWGQGTLVTVSSASTKGPSVFPLAPSSKSTSGGTAALGCLVKDYFPEPVTVSWNSGALTSGVHTFPAVLQSSGLYSLSSVVTVPSSSLGTQTYICNVNHKPSNTKVDKKVEPKSCDKTHTCPPCPAPELLGPSVFLFPPKPKDTLMISRTPEVTCVVVDVSHEDPEEKFNWYVDGVEVHNAKTKPREEQYNSTYRVVSVLTVLHQDWLNGKEYKCKVSNKALPAPIEKTISKAKGQPREPQVYTLPPSREEMTKNQVSLTCLVKGFYPSDIAVEWESNGQPENNYKTTPPVLDSDGSFFLYSKLTVDKSRWQQGNVFSCSVMHEALHNHYTQKSLSLSPGK
light: SYELTQPPSVSVSPGQTASITCSGDNIGDQYAHWYQQKPGQSPVLVIYQDKNRPSGIPERFSGSNSGNTATLTISGTQAMDEADYYCATYTGFGSLAVFGGGTKLTVLGQPKAAPSVTLFPPSSEELQANKATLVCLISDFYPGAVTVAWKADSSPVKAGVETTTPSKQSNNKYAASSYLSLTPEQWKSHRSYSCQVTHEGSTVEKTVAPTECS
notes: copies: 2 + 2
- binding result [1]: no binding (tested: 10 ug/ml)
- binding result [2]: no binding (tested: 300 nM)
- binding result [3]: no binding (tested: 300 nM)
- binding result [4]: no binding (tested: 300 nM)
- binding result [5]: no binding (tested: 300 nM)
- Kd [6]: 15 nM
- koff [6]: 0.0093 s⁻¹
- kon [6]: 620000 M⁻¹ s⁻¹
- binding result [7]: no binding (tested: 300 nM)
- binding result [8]: no binding (tested: 300 nM)
- binding result [9]: no binding (tested: 10 ug/ml)
- binding result [10]: no binding (tested: 10 ug/ml)

B2: anti-CD137 IgG4 with Fc variant G4m30 (antibody)
heavy: EVQLVQSGAEVKKPGESLRISCKGSGYSFSTYWISWVRQMPGKGLEWMGKIYPGDSYTNYSPSFQGQVTISADKSISTAYLQWSSLKASDTAMYYCARGYGIFDYWGQGTLVTVSSASTKGPSVFPLAPCSRSTSESTAALGCLVKDYFPEPVTVSWNSGALTSGVHTFPAVLQSSGLYSLSSVVTVPSSSLGTKTYTCNVDHKPSNTKVDKRVESKYGPPCPPCPAPEFLPSVFLFPPKPKDTLMISRTPEVTCVVVDVSQEDPEVQFNWYVDGVEVHNAKTKPREEQFNSTYRVVSVLTVLHQDWLNGKEYKCKVSNKGLPSSIEKTISKAKGQPREPQVYTLPPSQEEMTKNQVSLTCLVKGFYPSDIAVEWESNGQPENNYKTTPPVLDSDGSFFLYSRLTVDKSRWQEGNVFSCSVMHEALHNHYTQKSLSLSLGK
light: B1 light
notes: also called G430; copies: 2 + 2
- Kd [11]: 217 nM
- koff [11]: 0.309 s⁻¹
- kon [11]: 1.42e+06 M⁻¹ s⁻¹
- Kd [12]: 2220 nM
- koff [12]: 0.118 s⁻¹
- kon [12]: 53600 M⁻¹ s⁻¹
- Kd [13]: 977 nM
- koff [13]: 0.234 s⁻¹
- kon [13]: 240000 M⁻¹ s⁻¹
- Kd [14]: 216 nM
- koff [14]: 0.297 s⁻¹
- kon [14]: 1.37e+06 M⁻¹ s⁻¹
- Kd [15]: 7.61 nM
- koff [15]: 0.0133 s⁻¹
- kon [15]: 1.75e+06 M⁻¹ s⁻¹
- Kd [16]: 284 nM
- koff [16]: 0.303 s⁻¹
- kon [16]: 1.06e+06 M⁻¹ s⁻¹
- Kd [17]: 528 nM
- koff [17]: 0.193 s⁻¹
- kon [17]: 365000 M⁻¹ s⁻¹
- binding result [18]: no binding (tested: 10 ug/ml)

Next, values leading:

- binding result [1]: no binding (tested: 10 ug/ml)
- binding result [2]: no binding (tested: 300 nM)
- Kd [3]: 410 nM
- koff [3]: 0.1 s⁻¹
- kon [3]: 260000 M⁻¹ s⁻¹
- binding result [4]: no binding (tested: 300 nM)
- binding result [5]: no binding (tested: 300 nM)
- Kd [6]: 16 nM
- koff [6]: 0.01 s⁻¹
- kon [6]: 650000 M⁻¹ s⁻¹
- binding result [7]: no binding (tested: 300 nM)
- binding result [8]: no binding (tested: 300 nM)
B3: anti-CD137 IgG1 with Fc variant G1m27 (antibody)
heavy: B1 heavy with S265E, E271V
light: B1 light
notes: copies: 2 + 2

- binding result [1]: no binding (tested: 10 ug/ml)
- binding result [2]: no binding (tested: 300 nM)
- Kd [3]: 410 nM
- koff [3]: 0.2 s⁻¹
- kon [3]: 480000 M⁻¹ s⁻¹
- binding result [4]: no binding (tested: 300 nM)
- binding result [5]: no binding (tested: 300 nM)
- Kd [6]: 17 nM
- koff [6]: 0.011 s⁻¹
- kon [6]: 650000 M⁻¹ s⁻¹
- binding result [7]: no binding (tested: 300 nM)
- Kd [8]: 240 nM
- koff [8]: 0.16 s⁻¹
- kon [8]: 640000 M⁻¹ s⁻¹
- binding result [9]: no binding (tested: 10 ug/ml)
B4: anti-CD137 IgG1 with Fc variant G1m28 (antibody)
heavy: B1 heavy with E271V, L326F
light: B1 light
notes: copies: 2 + 2

Reference: patent US20200392227A1 (LYVGEN BIOPHARMA, published 2020)
